The target of assay [1] is T1, human β-factor XIIa (human), P00748.
T1 chain 1: NGPLSCGQR
T1 chain 2: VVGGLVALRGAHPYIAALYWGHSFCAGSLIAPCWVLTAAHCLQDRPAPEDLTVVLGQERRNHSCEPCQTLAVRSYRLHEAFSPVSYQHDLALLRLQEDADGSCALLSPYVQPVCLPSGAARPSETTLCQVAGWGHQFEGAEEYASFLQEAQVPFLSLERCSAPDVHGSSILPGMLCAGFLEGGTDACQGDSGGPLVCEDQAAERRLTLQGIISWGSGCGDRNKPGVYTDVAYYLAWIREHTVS
Description: competitive protease inhibition assay.

Assay [2] shares this target. The assay is described as follows: competitive protease inhibition assay, Ac-QRFR-pNA substrate, Morrison Ki.
In assay [3] the target is human cationic trypsin (human), P07477. Description: competitive protease inhibition assay (selectivity panel), human trypsin, Boc-VPR-MCA.
For assay [4], the target named is T2, recombinant human matriptase (human), Q9Y5Y6.
T2 chain: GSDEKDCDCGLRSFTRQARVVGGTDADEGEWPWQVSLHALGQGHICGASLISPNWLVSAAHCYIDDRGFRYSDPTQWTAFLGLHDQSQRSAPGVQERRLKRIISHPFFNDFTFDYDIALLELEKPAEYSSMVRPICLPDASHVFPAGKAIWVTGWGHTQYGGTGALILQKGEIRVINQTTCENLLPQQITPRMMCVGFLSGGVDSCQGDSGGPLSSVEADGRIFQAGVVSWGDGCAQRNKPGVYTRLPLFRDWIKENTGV
The assay is described as follows: competitive protease inhibition assay (selectivity panel), human matriptase, Boc-QAR-MCA.

The target of assay [5] is T3, human plasmin (human), P00747.
T3 chain: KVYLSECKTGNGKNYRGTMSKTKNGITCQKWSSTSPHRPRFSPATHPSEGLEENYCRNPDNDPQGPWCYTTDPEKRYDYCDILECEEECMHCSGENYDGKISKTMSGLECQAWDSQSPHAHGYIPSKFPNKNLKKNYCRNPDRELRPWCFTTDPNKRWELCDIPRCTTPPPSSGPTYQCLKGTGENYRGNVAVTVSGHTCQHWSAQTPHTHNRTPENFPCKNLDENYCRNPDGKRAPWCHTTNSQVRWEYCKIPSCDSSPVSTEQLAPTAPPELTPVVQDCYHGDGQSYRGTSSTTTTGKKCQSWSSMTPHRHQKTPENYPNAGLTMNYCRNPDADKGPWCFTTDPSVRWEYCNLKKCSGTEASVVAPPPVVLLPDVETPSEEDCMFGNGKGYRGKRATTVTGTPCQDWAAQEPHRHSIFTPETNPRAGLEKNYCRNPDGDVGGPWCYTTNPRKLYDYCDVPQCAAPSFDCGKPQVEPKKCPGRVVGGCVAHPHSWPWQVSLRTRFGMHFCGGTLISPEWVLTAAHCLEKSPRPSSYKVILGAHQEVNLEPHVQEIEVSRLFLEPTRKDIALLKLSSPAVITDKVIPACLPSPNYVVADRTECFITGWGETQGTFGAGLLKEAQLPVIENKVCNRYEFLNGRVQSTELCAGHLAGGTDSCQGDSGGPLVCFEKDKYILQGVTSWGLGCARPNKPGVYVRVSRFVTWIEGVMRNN
Description: competitive protease inhibition assay (selectivity panel), human plasmin, Ac-RM(O2)YR-pNA.

The target in assay [6] is bovine trypsin (bovine), P00760. Description: SPR, bovine trypsin.
Chain of bovine trypsin (bovine), P00760 (P00760 24-246): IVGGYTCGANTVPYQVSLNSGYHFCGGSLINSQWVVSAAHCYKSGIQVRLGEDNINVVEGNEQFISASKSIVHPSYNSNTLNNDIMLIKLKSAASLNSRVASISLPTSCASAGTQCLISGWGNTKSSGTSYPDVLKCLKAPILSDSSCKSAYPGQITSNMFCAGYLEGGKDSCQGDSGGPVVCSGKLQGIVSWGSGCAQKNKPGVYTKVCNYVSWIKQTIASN
Assay [7] deals with T4, FXIIa in human plasma (generated by kaolin activation of FXII in aPTT assays) (human), P00748.
T4 chain: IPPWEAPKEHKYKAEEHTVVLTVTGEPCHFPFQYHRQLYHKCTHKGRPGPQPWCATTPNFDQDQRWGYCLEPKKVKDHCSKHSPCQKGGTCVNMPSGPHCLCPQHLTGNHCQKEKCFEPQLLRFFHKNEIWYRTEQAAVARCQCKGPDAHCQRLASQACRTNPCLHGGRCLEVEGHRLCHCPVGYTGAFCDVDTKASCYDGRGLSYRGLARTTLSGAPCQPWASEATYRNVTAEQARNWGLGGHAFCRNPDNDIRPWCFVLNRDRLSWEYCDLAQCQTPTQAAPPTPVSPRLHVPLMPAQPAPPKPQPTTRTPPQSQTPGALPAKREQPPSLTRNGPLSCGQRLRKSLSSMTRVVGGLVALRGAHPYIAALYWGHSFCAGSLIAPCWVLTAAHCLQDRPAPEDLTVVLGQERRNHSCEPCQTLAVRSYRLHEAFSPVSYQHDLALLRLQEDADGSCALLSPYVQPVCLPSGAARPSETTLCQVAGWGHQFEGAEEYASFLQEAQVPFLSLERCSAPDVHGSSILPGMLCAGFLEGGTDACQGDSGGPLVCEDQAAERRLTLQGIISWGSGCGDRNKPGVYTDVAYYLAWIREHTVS
The assay is described as follows: cell-based or functional assay.

For assay [8], the target named is bovine trypsin (bovine), P00760. Description: SPR, ratio of KD values. Background: In SPR one partner is held on a chip, and binding of the other changes the refractive index at the surface.
Assay [9] addresses T1, human β-factor XIIa (human), P00748. Description: SPR, ratio of KD values.
Assay [10] shares this target. The assay is described as follows: competitive protease inhibition assay, ratio of Ki values.
Assay [11] shares this target. The assay is described as follows: SPR (Biacore T200), biotinylated human β-FXIIa captured on chip, peptide as analyte, 1:1 model.
Assay [12] has the same target. Description: competitive protease inhibition assay, 0.5 nM FXIIa, Boc-QGR-MCA substrate (unit as printed; probably pM).

RICPRIGRLCRRDSDCPGACICRATRFCG (modifications not checked) [acyclic variant of MCoFx1 based on a minimized knottin scaffold (29 amino acids)]: the inhibition constant (Ki) (in general, the dissociation constant of the complex between target and ligand, obtained from inhibition or displacement) in assay [1] amounted to 1.4 nM.
As for DGGVCPKILKKCRRDSDCPGACICRATRFCGSGS (modifications not checked) [cMCoTI-fxL5], the inhibition constant Ki in assay [2] was 66 nM; in [3], 0.08 nM; in assay [4], 17 nM; in assay [5], 31 nM.
For the molecule DGGICPRIGRLCRRDSDCPGACICRATRFCGSGY (modifications not checked) [MCoFx1 cyclic], the dissociation constant (Kd) (as a rule, the constant that tells how readily two partners part at equilibrium) amounted to 31.5 nM in assay [6] and 0.9 nM in [11]. For the same molecule, in assay [7], the EC2× (inhibitor concentration that doubles the clotting time), aPTT assay in human plasma turned out to be 702 nM. The fold lower affinity than MCoTI-II in assay [8] came out at 300 fold. In addition, in assay [9], the fold higher affinity than MCoTI-II is 60 fold. The fold more potent than MCoTI-II in [10] turned out to be 350 fold. The inhibitory constant (Ki) in assay [2] was 0.37 nM; in [3] it was 1110 nM; in assay [4] it was 9120 nM.
Take GGICPRFGRLCRRDSDCPGACICRATRFCGSGSD (modifications not checked) [Cyclic MCoFx6]: the Ki in assay [12] turned out to be 1.09 nM.

For the origin of these results see US20240344241A1, “PROTEINACEOUS MOLECULES AND USES THEREFOR” (THE UNIVERSITY OF QUEENSLAND, priority 2021, published 2024).
